Tests used:
[1] = target: T1, human complement component C3 (human, UniProt P01024 23-667; P01024 672-1663); assay: SPR (Biacore)
T1 construct: also called human C3
Description: The binding affinities of exemplary anti-C3 antibodies to human C3 and cyno C3 were measured using a Biacore system (GE Healthcare LifeSciences). Briefly, anti-Fc antibody (Sigma-Aldrich) was immobilized on all four flow cells of a CM5 chip using amine coupling reagents (GE Healthcare LifeSciences). Antibodies were captured on flow cells 2, 3, and 4 using flow cell 1 as a reference. Concentrations ranging from 0.62-40 nM of human C3 or cyno C3 were injected at a flow rate of 50 μL/min at 37° C. Kinetic data were collected over time and fit using the simultaneous global fit equation to yield affinity constants (KD values) for each antibody.

[2] = target: T1, human complement component C3; assay: cell-based or functional assay
[3] = target: T2, cynomolgus monkey complement component C3 (cynomolgus monkey, UniProt P01024 24-1663 (human entry)); assay: cell-based or functional assay
[4] = target: T1, human complement component C3; assay: cell-based or functional assay; remark: listed apart in the source
[5] = target: T2, cynomolgus monkey complement component …; assay: cell-based or functional assay; remark: listed apart in the source
[6] = target: T1, human complement component C3; assay: binding screen of Example 5; method and unit not stated
C3a = C3a (human, UniProt P01024 672-748); assay: as above
C3b = C3b (human, UniProt P01024 23-667; P01024 749-1663); assay: as above
C3d = target: T3, C3d (UniProt P01024 1002-1303, limits assumed); assay: as above
T3 construct: domain: C3d

Factor Bb = target: T4, Factor Bb (UniProt P00751 260-764); assay: as above
T4 construct: domain: Factor Bb
T4 sequence (P00751 260-764 limits assumed): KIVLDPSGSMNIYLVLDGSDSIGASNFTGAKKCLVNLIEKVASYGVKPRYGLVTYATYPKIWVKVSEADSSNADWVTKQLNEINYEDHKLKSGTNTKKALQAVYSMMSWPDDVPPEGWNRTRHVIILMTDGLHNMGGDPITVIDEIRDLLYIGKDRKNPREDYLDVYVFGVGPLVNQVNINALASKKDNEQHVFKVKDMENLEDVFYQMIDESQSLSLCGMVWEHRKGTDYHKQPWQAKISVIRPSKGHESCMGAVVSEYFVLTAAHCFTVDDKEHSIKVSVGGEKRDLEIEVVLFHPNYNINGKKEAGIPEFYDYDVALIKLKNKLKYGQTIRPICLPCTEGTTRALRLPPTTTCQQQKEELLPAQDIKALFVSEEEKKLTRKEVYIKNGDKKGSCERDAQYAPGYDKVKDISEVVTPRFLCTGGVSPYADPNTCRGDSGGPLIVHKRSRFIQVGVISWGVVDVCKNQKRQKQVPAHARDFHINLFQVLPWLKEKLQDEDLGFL

T2 sequence (P01024 other isoform, or with tags, fused parts or gaps): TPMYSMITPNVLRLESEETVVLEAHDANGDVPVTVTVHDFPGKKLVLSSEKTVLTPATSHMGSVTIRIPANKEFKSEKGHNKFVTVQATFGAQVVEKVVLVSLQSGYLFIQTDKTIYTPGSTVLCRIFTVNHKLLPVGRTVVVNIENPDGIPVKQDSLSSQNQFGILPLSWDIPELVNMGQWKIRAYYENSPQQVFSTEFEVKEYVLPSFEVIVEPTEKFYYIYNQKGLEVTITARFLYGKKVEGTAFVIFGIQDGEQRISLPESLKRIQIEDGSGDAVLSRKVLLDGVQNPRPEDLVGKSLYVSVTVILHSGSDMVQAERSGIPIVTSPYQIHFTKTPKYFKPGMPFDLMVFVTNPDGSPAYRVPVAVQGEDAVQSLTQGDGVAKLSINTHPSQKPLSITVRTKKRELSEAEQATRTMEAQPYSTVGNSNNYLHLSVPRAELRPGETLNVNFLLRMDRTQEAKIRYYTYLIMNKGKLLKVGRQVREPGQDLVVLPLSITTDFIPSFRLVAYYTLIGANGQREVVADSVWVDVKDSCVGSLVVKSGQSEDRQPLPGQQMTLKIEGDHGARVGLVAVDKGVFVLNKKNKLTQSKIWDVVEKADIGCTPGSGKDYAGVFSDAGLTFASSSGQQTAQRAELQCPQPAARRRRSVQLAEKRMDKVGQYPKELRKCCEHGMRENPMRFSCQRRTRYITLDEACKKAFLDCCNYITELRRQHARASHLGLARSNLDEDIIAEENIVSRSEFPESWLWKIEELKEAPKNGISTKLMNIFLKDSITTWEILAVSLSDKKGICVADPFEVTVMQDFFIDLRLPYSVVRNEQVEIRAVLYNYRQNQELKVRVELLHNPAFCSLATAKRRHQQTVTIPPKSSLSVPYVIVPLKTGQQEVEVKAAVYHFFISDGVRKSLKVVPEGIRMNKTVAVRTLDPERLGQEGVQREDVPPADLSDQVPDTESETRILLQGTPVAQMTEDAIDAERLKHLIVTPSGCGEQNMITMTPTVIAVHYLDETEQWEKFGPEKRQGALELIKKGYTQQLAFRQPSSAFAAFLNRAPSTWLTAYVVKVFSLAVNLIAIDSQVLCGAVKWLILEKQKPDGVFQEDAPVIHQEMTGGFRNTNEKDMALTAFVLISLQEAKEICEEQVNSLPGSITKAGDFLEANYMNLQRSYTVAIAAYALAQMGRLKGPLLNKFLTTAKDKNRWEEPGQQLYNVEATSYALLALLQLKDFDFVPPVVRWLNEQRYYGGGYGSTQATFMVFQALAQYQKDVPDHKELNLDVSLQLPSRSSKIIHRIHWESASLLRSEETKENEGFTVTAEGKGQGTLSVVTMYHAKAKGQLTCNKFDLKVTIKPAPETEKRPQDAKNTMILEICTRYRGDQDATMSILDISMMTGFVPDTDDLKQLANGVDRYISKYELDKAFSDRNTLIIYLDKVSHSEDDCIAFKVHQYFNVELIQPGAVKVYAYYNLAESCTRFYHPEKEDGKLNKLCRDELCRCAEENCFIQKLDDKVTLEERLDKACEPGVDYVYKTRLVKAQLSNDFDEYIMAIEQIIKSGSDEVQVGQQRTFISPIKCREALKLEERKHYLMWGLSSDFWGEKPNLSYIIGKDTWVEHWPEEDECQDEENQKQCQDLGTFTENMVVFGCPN
T1 sequence (P01024 23-667, chain 1 of 2): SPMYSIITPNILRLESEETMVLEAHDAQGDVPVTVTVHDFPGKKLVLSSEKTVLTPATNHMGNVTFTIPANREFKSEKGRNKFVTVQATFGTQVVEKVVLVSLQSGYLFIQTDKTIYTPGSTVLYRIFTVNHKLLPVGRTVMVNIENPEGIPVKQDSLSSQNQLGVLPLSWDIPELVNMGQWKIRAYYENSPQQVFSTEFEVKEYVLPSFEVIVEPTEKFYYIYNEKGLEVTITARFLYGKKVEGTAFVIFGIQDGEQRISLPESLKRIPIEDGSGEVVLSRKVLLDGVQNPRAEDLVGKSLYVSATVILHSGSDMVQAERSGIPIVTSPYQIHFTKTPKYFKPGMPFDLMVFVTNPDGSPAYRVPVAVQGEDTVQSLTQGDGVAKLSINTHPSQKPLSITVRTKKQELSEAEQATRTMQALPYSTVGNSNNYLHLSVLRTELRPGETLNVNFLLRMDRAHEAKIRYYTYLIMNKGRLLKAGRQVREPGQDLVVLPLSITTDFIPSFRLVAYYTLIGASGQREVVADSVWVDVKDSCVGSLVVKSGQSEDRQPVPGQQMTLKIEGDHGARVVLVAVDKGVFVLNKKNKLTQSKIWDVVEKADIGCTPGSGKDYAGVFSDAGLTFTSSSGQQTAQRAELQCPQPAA
T1 sequence (P01024 672-1663, chain 2 of 2): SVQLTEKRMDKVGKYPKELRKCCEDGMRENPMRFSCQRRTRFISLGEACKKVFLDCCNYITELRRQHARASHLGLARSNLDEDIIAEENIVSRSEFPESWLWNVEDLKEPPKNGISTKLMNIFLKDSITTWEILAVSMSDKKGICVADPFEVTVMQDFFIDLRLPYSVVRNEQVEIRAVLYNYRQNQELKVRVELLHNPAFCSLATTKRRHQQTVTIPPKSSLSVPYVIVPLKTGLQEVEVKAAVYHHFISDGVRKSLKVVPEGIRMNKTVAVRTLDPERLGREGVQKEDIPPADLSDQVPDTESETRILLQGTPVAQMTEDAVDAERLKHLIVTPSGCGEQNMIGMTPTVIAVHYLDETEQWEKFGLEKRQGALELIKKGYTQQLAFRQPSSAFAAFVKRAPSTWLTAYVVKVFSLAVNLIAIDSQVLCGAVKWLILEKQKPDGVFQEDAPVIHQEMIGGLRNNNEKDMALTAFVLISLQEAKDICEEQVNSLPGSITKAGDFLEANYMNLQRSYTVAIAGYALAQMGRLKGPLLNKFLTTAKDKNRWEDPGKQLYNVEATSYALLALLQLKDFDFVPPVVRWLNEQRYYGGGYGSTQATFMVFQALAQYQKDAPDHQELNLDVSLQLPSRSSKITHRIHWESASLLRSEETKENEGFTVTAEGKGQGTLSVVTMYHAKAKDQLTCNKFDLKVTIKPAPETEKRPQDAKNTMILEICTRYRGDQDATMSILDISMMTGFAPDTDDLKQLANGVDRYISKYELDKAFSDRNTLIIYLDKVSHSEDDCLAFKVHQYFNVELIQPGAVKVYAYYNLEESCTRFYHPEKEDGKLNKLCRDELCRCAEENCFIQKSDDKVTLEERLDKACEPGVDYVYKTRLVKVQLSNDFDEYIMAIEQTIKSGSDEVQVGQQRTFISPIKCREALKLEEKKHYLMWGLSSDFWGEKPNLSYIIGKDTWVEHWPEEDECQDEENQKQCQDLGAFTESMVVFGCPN
C3b, sequence (P01024 23-667 limits assumed, chain 1 of 2): as the sequence (P01024 23-667, chain 1 of 2) above
C3b, sequence (P01024 749-1663 limits assumed, chain 2 of 2): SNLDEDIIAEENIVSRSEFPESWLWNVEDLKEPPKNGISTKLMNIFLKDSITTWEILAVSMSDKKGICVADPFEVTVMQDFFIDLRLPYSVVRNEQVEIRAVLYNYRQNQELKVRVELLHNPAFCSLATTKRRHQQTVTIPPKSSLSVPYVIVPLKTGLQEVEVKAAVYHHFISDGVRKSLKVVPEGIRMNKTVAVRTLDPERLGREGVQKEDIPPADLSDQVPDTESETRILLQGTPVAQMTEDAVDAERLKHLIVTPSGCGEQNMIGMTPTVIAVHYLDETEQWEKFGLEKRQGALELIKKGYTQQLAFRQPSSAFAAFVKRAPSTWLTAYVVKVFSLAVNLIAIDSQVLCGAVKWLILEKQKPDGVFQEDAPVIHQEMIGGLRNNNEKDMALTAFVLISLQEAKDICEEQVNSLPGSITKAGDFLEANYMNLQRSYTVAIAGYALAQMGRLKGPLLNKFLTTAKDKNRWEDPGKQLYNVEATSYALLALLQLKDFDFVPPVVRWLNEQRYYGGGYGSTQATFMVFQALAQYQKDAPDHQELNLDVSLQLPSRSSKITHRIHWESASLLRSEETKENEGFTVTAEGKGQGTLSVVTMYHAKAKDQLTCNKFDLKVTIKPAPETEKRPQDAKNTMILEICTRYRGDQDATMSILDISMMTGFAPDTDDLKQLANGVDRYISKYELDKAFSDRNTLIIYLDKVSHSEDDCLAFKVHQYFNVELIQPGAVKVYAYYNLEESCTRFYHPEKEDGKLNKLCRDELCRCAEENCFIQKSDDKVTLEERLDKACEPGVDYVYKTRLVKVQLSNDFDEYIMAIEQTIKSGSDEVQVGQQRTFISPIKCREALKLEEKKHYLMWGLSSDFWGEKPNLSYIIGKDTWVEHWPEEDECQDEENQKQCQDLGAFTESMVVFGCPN
T3 sequence (P01024 1002-1303 limits assumed): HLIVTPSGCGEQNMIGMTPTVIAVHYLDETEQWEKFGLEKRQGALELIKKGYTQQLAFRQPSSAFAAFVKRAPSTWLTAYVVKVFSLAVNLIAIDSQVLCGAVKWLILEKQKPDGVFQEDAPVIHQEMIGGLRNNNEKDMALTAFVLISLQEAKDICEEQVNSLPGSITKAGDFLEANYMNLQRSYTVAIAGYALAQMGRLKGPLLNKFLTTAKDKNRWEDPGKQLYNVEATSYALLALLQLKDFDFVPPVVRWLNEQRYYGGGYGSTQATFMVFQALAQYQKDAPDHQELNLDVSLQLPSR

B1: antibody Hz38G10(G56A) (antibody, human IgG1, kappa, V domains shown)
VH: QVQLVQSGAEVKKPGASVKVSCKASGYTFTDFYMDWVRQAPGQRLEWMGYIYPHNAGTTYNQQFTGRVTITVDKSASTAYMELSSLRSEDTAVYYCARRGGFDFDYWGQGTLVTVSS
VL: DIQMTQSPSSLSASVGDRVTITCKASENVDTYVSWYQQKPGKAPKLLIYGASNRYTGVPSRFSGSGSGTDFTFTISSLQPEDIATYHCGQSHSYPLTFGQGTKLEIKR
notes: the light chain is the Hz38G10 light chain
- Kd [1]: 0.27 nM
- Alternative Pathway IC50 (hemolysis), Human C3 [2]: 3.9 nM
- Classical Pathway IC50 (hemolysis), Human C3 [2]: 5.4 nM
- Alternative Pathway IC50 (hemolysis), Cyno C3 [3]: 4.8 nM
- Classical Pathway IC50 (hemolysis), Cyno C3 [3]: 0.6 nM

B2: antibody Hz38G10(N55D) (antibody, V domains shown)
VH: QVQLVQSGAEVKKPGASVKVSCKASGYTFTDFYMDWVRQAPGQRLEWMGYIYPHDGGTTYNQQFTGRVTITVDKSASTAYMELSSLRSEDTAVYYCARRGGFDFDYWGQGTLVTVSS
VL: DIQMTQSPSSLSASVGDRVTITCKASENVDTYVSWYQQKPGKAPKLLIYGASNRYTGVPSRFSGSGSGTDFTFTISSLQPEDIATYHCGQSHSYPLTFGQGTKLEIK
notes: Variant of Hz38G10 with N55D in the heavy chain CDR2, mimicking a fully deamidated molecule
- binding result [1]: binds

B3: antibody Hz38G10(N55E) (antibody, V domains shown)
VH: QVQLVQSGAEVKKPGASVKVSCKASGYTFTDFYMDWVRQAPGQRLEWMGYIYPHEGGTTYNQQFTGRVTITVDKSASTAYMELSSLRSEDTAVYYCARRGGFDFDYWGQGTLVTVSS
VL: DIQMTQSPSSLSASVGDRVTITCKASENVDTYVSWYQQKPGKAPKLLIYGASNRYTGVPSRFSGSGSGTDFTFTISSLQPEDIATYHCGQSHSYPLTFGQGTKLEIK
notes: Variant of Hz38G10
- Kd [1]: 6.2 nM

B4: antibody Hz38G10(G56T) (antibody, V domains shown)
VH: QVQLVQSGAEVKKPGASVKVSCKASGYTFTDFYMDWVRQAPGQRLEWMGYIYPHNTGTTYNQQFTGRVTITVDKSASTAYMELSSLRSEDTAVYYCARRGGFDFDYWGQGTLVTVSS
VL: DIQMTQSPSSLSASVGDRVTITCKASENVDTYVSWYQQKPGKAPKLLIYGASNRYTGVPSRFSGSGSGTDFTFTISSLQPEDIATYHCGQSHSYPLTFGQGTKLEIK
notes: Variant of Hz38G10
- Kd [1]: 0.23 nM

B5: antibody Hz38G10(N55Q) (antibody, V domains shown)
VH: QVQLVQSGAEVKKPGASVKVSCKASGYTFTDFYMDWVRQAPGQRLEWMGYIYPHQGGTTYNQQFTGRVTITVDKSASTAYMELSSLRSEDTAVYYCARRGGFDFDYWGQGTLVTVSS
VL: DIQMTQSPSSLSASVGDRVTITCKASENVDTYVSWYQQKPGKAPKLLIYGASNRYTGVPSRFSGSGSGTDFTFTISSLQPEDIATYHCGQSHSYPLTFGQGTKLEIK
notes: Variant of Hz38G10
- Kd [1]: 0.82 nM

B6: antibody 62B11 (antibody, V domains shown)
VH: EVKLVESGGGLVQPGGSLKLSCAASGFTFSSYTMSWVRQTPEKRLEWVAYISSGGGTTYYPDTVKGRFTVSRDNAKNTLYLQMSSLRSEDTAMYSCARRYYRGSSLWYFDVWGAGTTVTVSS
VL: DIVMTQSPSSLTVTAGEKVTMSCKSSQSLFNSGSQKNFLTWYQQRPGQPPKLLIYWASTRESGVPDRFTGSGSGTDFTLTISSVQAEDLAVYYCQNDYSYPLTFGAGTKLELK
notes: Mouse hybridoma antibody
- Hemolytic Assay IC50, Human AP [4]: 6.6 nM
- Hemolytic Assay IC50, Human CP [4]: 4.2 nM
- Hemolytic Assay IC50, Cyno AP [5]: ~11 nM
- Hemolytic Assay IC50, Cyno CP [5]: ~1 nM
- binding relative to negative control mIgG2 [6]: 0.83
- binding relative to negative control mIgG2 (C3a): -0.03
- binding relative to negative control mIgG2 (C3b): 0.76
- binding relative to negative control mIgG2 (C3d): -0.02
- binding relative to negative control mIgG2 (Factor Bb): -0.02

B7: antibody 38F5 (antibody, V domains shown)
VH: EVMLVESGGALVKPGGSLKLSCTASGFTFSNYAMSWVRQTPEKRLEWVAQTISSGGRYTYYPDSVKGRFTISRDNARNTLYLQMSSLRSEDTAMYYCVRRYYGNSYWYFDVWGAGTTVTVSS
VL: DIVMTQSPSSLSVSAGEKVTMNCKSSQSLLNSGNQKHYLTWYQQKPGQPPKLLIYGASTRGSGVPDRFTGSGSGTDFTLTISSVQAEDLAVYYCQNDHSYPYTFGGGTKLEIK
notes: Mouse hybridoma antibody
- Hemolytic Assay IC50, Human AP [4]: 9.2 nM
- Hemolytic Assay IC50, Human CP [4]: 6.7 nM
- Hemolytic Assay IC50, Cyno AP [5]: 12.9 nM
- Hemolytic Assay IC50, Cyno CP [5]: 2.3 nM
- binding relative to negative control mIgG2 [6]: 0.83
- binding relative to negative control mIgG2 (C3a): 0
- binding relative to negative control mIgG2 (C3b): 0.66
- binding relative to negative control mIgG2 (C3d): 0.01
- binding relative to negative control mIgG2 (Factor Bb): -0.01
